Assay results as given in patent US7888089B2, “eNOS mutations useful for gene therapy and therapeutic screening” (Yale University, priority 1999, dated 2011).
Several values for one entry are separate records, joined by “and”; a condition that tells them apart may be missing. Equal values may be shown once. Read-outs that look alike come from different tables or passages of the source.

Columns and labels:
eNOS [1] = experiment: Hemoglobin capture assay of NO production by purified eNOS; format: biochemical, bovine; conditions: for Kcat (substrate Arginine, Hemoglobin capture): rate of NO production vs L-arginine, optimal conditions
Procedure: Assay for NOS Activity—NO production was measured by the hemoglobin capture assay as described (Kelm et al., 1988). Briefly, the reaction mixture contained eNOS (0.5-2.5 μg), oxyhemoglobin (8 μM), L-arginine (100 μM), BH4 (5 μM), CaCl2 (120 μM), calmodulin (120-200 nM), and NADPH (100 μM) in HEPES buffer (50 mM), pH 7.4. […] Under these conditions, free calcium was calculated using the WinMAXC program, version
NOS activity was monitored for linearity over 2 min at 401 nm, and NO production was calculated based on the change of absorbance using the extinction coefficient of 60 mM^−1 cm^−1. All reactions were carried out at 23° C., and each data point represents 3-8 observations. The extinction coefficient of 0.0033 μM^−1 cm^−1 at 276 nm was used for determination of calmodulin concentration. […] When the inactivation of eNOS was determined by the addition of EGTA (200-800 μM) to the reaction mixture, chelator was added 1 min after initiation of the reaction by NADPH. Identical conditions were used when NADPH-cytochrome c reductase activity was examined. These reactions contained CaM (120 nM) and CaCl2 (200 μM) in a 0.5-ml volume with eNOS (0.5 μg).

cytochrome c = experiment: NADPH-cytochrome c reductase activity of purified eNOS; format: biochemical; conditions: for EC50: cytochrome c reduction; for Km: Km for NADPH
Procedure: (§1) Assays for Reductase Activity—NADPH-cytochrome c reductase activity and 2,6-dichlorophenolindophenol (DCIP) reduction were measured as a change in absorbance at 550 nm as described previously by Martasek et al. (1999) and Masters et al. (1967) using an extinction coefficient of 0.021 μM^−1 cm^−1 for both cytochrome c and DCIP. Briefly, a reaction mixture (1 ml) contained either cytochrome c (90 μM); DCIP (36 μM), HEPES buffer (50 mM) at pH 7.6, NaCl (250 mM), NADPH (100 μM), calmodulin (120 nM), and CaCl2 (200 μM); or other substances as indicated. The reaction was monitored for 60 s (at 23° C.) after the addition of eNOS. When inactivation of reductase activity was determined by the addition of EGTA (200-800 μM), chelator was added 1 min after initiation of the reaction and monitored for an additional 1 min. The reaction contained HEPES buffer (50 mM) at pH 7.6, CaM (120 nM), and CaCl2 (200 μM) and was initiated with NADPH (100 μM). No NaCl was added in experiments that examined EGTA inactivation of eNOS to mimic the conditions used in the hemoglobin capture experiments. […] Determination of the calcium EC50 for eNOS was performed as described above for the hemoglobin capture assay.

[2] = DCIP reduction by purified eNOS; format: biochemical; conditions: FIG. 6B
Procedure: as §1

eNOS [3] = experiment: NOS activity (3H-L-arginine to 3H-L-citrulline) in COS cell lysates; format: biochemical, bovine; conditions: COS cells transfected with eNOS only, n=3
Excerpt: NOS activity assays: The conversion of ^3H-L-arginine to ^3H-L-citrulline was used to determine NOS activity in COS cell or endothelial cell lysates as previously described by Garcia-Cardena et al. (1998).

eNOS [4] = experiment: Conversion of L-arginine to L-citrulline by purified eNOS; format: biochemical, bovine; conditions: for Kcat (CaM, L-Citrulline): CaM activation of NOS activity
Procedure: The conversion of L-arginine to L-citrulline was assayed as described previously by Bredt et al. (1990). Briefly, eNOS (0.25-2 μg) was incubated for 3-10 min at 23° C. in the following reaction mixture: 3 pmol of L-[3H]arginine (55 Ci/mmol), 10-300 μM arginine, 1 mM NADPH, 120-200 nM calmodulin, 2 mM CaCl2, and 30 μM BH4 in a final reaction volume of 50-100 μl. The reaction was terminated by the addition of 0.5 ml of 20 mM HEPES, pH 5.5, containing 2 mM EGTA and EDTA. The reaction mixture was placed over Dowex AG50WX8, and the flow-through was counted on a Packard 1500 liquid scintillation analyzer.

EC50 (eNOS [1]; EC50 for free calcium, NO production, 250 nM CaM, read-out: EC50 (Ca2+, Hemoglobin capture, 100 mM KCl)): 250 nM | EC50 (cytochrome c; EC50 for CaM, listed as S1179D eNOS, read-out: EC50 (CaM, Cytochrome c)): 13 nM | EC50 (cytochrome c; EC50 for CaM, read-out: EC50 (CaM, Cytochrome c)): 21 nM | EC50 (cytochrome c; EC50 for free calcium, read-out: EC50 (Ca2+, Cytochrome c, 100 mM KCl)): 220 nM | cytochrome c reduction activity compared with wild type eNOS (cytochrome c; FIG. 6B): significant increase in activity | basal cytochrome c reduction, S1179D compared with wild type eNOS (cytochrome c; absence of CaM): 4 fold | cytochrome c reduction, first value of pair (with superoxide dismutase) (cytochrome c; absence of CaM): 278 ± 9 min⁻¹ | cytochrome c reduction, second value of pair (without superoxide dismutase) (cytochrome c; absence of CaM): 288 ± 7 min⁻¹ | cytochrome c reduction with superoxide dismutase (cytochrome c; presence of CaM): 1179 ± 43 min⁻¹ | cytochrome c reduction without superoxide dismutase (cytochrome c; presence of CaM): 1518 ± 19 min⁻¹ | relative decrease in cytochrome c activity in the presence of superoxide dismutase (cytochrome c; presence of CaM): 22% | CaM-stimulated cytochrome c reduction (cytochrome c; presence of CaM, n=3-5): 1272 ± 55 min⁻¹ | level of stimulation of cytochrome c reduction by CaM (cytochrome c; with vs without CaM): 3 fold | EC50 (eNOS [4]; EC50 for CaM, NOS activity): 7 nM
B1: S1179D: bovine eNOS with serine 1179 mutated to aspartic acid (protein)
chain: GNLKSVGQEPGPPCGLGLGLGLGLCGKQGPASPAPEPSRAPAPATPHAPDHSPAPNSPTLTRPPEGPKFPRVKNWELGSITYDTLCAQSQQDGPCTPRCCLGSLVLPRKLQTRPSPGPPPAEQLLSQARDFINQYYSSIKRSGSQAHEERLQEVEAEVASTGTYHLRESELVFGAKQAWRNAPRCVGRIQWGKLQVFDARDCSSAQEMFTYICNHIKYATNRGNLRSAITVFPQRAPGRGDFRIWNSQLVRYAGYRQQDGSVRGDPANVEITELCIQHGWTPGNGRFDVLPLLLQAPDEAPELFVLPPELVLEVPLEHPTLEWFAALGLRWYALPAVSNMLLEIGGLEFSAAPFSGWYMSTEIGTRNLCDPHRYNILEDVAVCMDLDTRTTSSLWKDKAAVEINLAVLHSFQLAKVTIVDHHAATVSFMKHLDNEQKARGGCPADWAWIVPPISGSLTPVFHQEMVNYILSPAFRYQPDPWKGSATKGAGITRKKTFKEVANAVKISASLMGTLMAKRVKATILYASETGRAQSYAQQLGRLFRKAFDPRVLCMDEYDVVSLEHEALVLVVTSTFGNGDPPENGESFAAALMEMSGPYNSSPRPEQHKSYKIRFNSVSCSDPLVSSWRRKRKESSNTDSAGALGTLRFCVFGLGSRAYPHFCAFARAVDTRLEELGGERLLQLGQGDELCGQEEAFRGWAKAAFQASCETFCVGEEAKAAAQDIFSPKRSWKRQRYRLSTQAEGLQLLPGLIHVHRRKMFQATVLSVENLQSSKSTRATILVRLDTAGQEGLQYQPGDHIGICPPNRPGLVEALLSRVEDPPPPTESVAVEQLEKGSPGGPPPSWVRDPRLPPCTLRQALTFFLDITSPPSPRLLRLLSTLAEEPSEQQELETLSQDPRRYEEWKWFRCPTLLEVLEQFPSVALPAPLLLTQLPLLQPRYYSVSSAPNAHPGEVHLTVAVLAYRTQDGLGPLHYGVCSTWLSQLKTGDPVPCFIRGAPSFRLPPDPYVPCILVGPGTGIAPFRGFWQERLHDIESKGLQPAPMTLVFGCRCSQLDHLYRDEVQDAQERGVFGRVLTAFSREPDSPKTYVQDILRTELAAEVHRVLCLERGHMFVCGDVTMATSVLQTVQRILATEGDMELDEAGDVIGVLRDQQRYHEDIFGLTLRTQEVTSRIRTQDFSLQERHLRGAVPWAFDPPGPDTPGP
sensitivity of NO production to the addition of EGTA (eNOS [1]; 0-600 μM EGTA, 200 μM calcium): less sensitive to the addition of EGTA | NO production after calcium chelation with EGTA (eNOS [1]; 600 μM EGTA, 200 μM calcium): residual activity was still detected | calcium dependence of NO production after normalization for maximal activity (eNOS [1]; FIG. 8C, p<0.05): slightly increased | Km (eNOS [1]; Km for L-arginine, read-out: Km (substrate Arginine, Hemoglobin capture)): 2.5 µM | Km (eNOS [1]; Km for NADPH, in presence of CaM, read-out: Km (NADPH, Hemoglobin capture)): 36 µM | Kcat (NADPH, Hemoglobin capture) (eNOS [1]; NADPH dependence, in presence of CaM): 0.883 ± 0.05 s⁻¹ | increase in the Km for NADPH, S1179D compared with wild type eNOS (eNOS [1]; NO production, presence of CaM): 4 fold | Kcat (Ca2+, Hemoglobin capture, 100 mM KCl) (eNOS [1]; calcium activation, 250 nM CaM): 1.67 ± 0.05 s⁻¹ | maximal turnover rate, FIG. 8C (eNOS [1]; calcium-dependent NO production): 100 min1 | maximal turnover rate, FIG. 8A (eNOS [1]; calmodulin-dependent hemoglobin capture): 43 min⁻¹ | Kcat (substrate Arginine, Hemoglobin capture) (eNOS [1]): 1.4 ± 0.1 s⁻¹ | Kcat (substrate Arginine, Hemoglobin capture) (eNOS [1]; listed as S1179D eNOS): 1.4 ± 0.1 s⁻¹ | kcat for CaM activation of cytochrome c reduction, S1179D compared with wild type (cytochrome c): about 2 fold | Kcat (CaM, Cytochrome c) (cytochrome c; CaM activation of cytochrome c reduction): 19 s⁻¹ and 19 ± 1.25 s⁻¹ | Km (cytochrome c; absence of CaM): 2 µM | Km (cytochrome c; presence of CaM): 1.9 µM | Kcat − CaM (NADPH, Cytochrome c) (cytochrome c; NADPH dependence, absence of CaM): 4.83 ± 0.15 s⁻¹ | Kcat − CaM (NADPH, Cytochrome c) (cytochrome c; NADPH dependence, absence of CaM, listed as eNOS S1179D): 4.83 s⁻¹ | Kcat + CaM (NADPH, Cytochrome c) (cytochrome c; NADPH dependence, presence of CaM): 14 s⁻¹ and 14 ± 0.983 s⁻¹ | Kcat (Ca2+, Cytochrome c, 100 mM KCl) (cytochrome c; calcium activation): 63.3 ± 0.9 s⁻¹ | maximal turnover rate, FIG. 8D (cytochrome c; calcium-dependent cytochrome c reduction): 3810 min⁻¹ | maximal turnover rate, FIG. 8B (cytochrome c; calmodulin-dependent cytochrome c reduction): 1400 min1 | reductase activity after calcium chelation with EGTA (cytochrome c; highest concentration of EGTA): residual reductase activity was found | DCIP reduction activity compared with wild type eNOS [2]: significant increase in activity | NOS activity in lysates (eNOS [3]): 131.8±36.7 pmol L-citrulline generated/mg protein | Kcat (CaM, L-Citrulline) (eNOS [4]): 0.717 ± 0.033 s⁻¹ | Kcat (CaM, L-Citrulline) (eNOS [4]; listed as S1179D eNOS): 0.717 s⁻¹
